Where two headings read alike, the source gives them in different places.

In general, Kd refers to the concentration at which binding is half-saturated. By koff is commonly meant the first-order rate constant of dissociation. What is called kon is a measure of how fast the partners come together.

The target in assay [1] is monomeric P301S 2N4R tau, pHrodo-labelled (human, UniProt P10636 1-758, pHrodo Red maleimide label). Briefly: cell-based or functional assay.
Assay [2] addresses aggregated (oligomeric) P301S 2N4R tau, pHrodo-labelled (human, UniProt P10636 1-758, pHrodo Red maleimide label). Briefly: cell-based or functional assay.
For assay [3], the target named is T1, full length recombinant human 2N4R tau (human, UniProt P10636 1-758).
T1 construct: bought from rPeptide; pHrodo Red maleimide-labelled where it stands in uptake assays; also called tau1-441; full length tau
Briefly: SPR SCK, IgG on Protein A, tau in flow. The procedure: 21.5 Assessment of antibody binding to tau (Biacore SCK analysis): Binding of anti-tau hIgG1 to full length recombinant 2N4R tau (Rpeptide; SEQ ID NO: 2) was assessed using the Biacore T200 (GE Healthcare, Chicago, IL, USA) running Biacore T200 Evaluation Software V2.0.1. hIgG1 were immobilised on a Protein A capture sensor chip in running buffer (HBS-EP+ buffer containing 1 mg/mL BSA) at 25° C., captured to ˜50 RU at 10 μL/min. For single-cycle kinetics experiments, recombinant 2N4R tau was flowed at concentrations ranging from 1.25 nM to 10 nM (2-fold dilutions) with an association time of 60 s and a dissociation time of 200 s. Curves were compared to a reference cell that was mock immobilized (no antibody present).

In assay [4] the target is T1, full length recombinant human 2N4R tau. Description: SPR MCK, IgG on Protein A, tau in flow. The procedure:
Slight variations in RMAX are considered likely to be due to differences in ligand capture and not reflective of significant variation in antibody binding characteristics.
22.2 Assessment of antibody binding to tau (Biacore MCK analysis): Binding of anti-tau hIgG1 to full length recombinant 2N4R tau (Rpeptide; SEQ ID NO: 2) was assessed using the Biacore T200 (GE Healthcare, Chicago, IL, USA) running Biacore T200 Evaluation Software V2.0.1. hIgG1 were immobilised on a Protein A capture sensor chip in running buffer (HBS-EP+ buffer containing 1 mg/mL BSA) at 25° C., captured to ˜50 RU at […]. For multi-cycle kinetics experiments, recombinant 2N4R tau was flowed at concentrations ranging from 0.39 nM to 12.5 nM in running buffer at 40 μL/min, with an association time of 60 s and a dissociation time of 200 s. Curves were compared to a reference cell that was mock immobilized (no antibody present).

Assay [5] has as its target T2, Bovine serum albumin (bovine, UniProt P02769 25-607).
T2 construct: also called BSA
Briefly: ELISA on 1% BSA, HEK supernatant, anti-human IgG-HRP, n=1. The procedure: FIG. 7. A panel of humanised anti-tau IgG bind to full length recombinant 2N4R tau in an ELISA format. Supernatants from HEK cells transiently transfected with each IgG clone were tested at 1:100 for binding to full length recombinant 2N4R tau (solid bars). […] Binding of anti-tau hIgG1 was detected using an HRP-conjugated anti-human secondary antibody and data are shown from a representative experiment (n=1 replicate).
Antigen was removed from wells and the plates were then blocked for 1 hour at RT with 5% dried milk in 1×TBS. Blocking solution was removed, HEK293 cell supernatant (1:100 in 1% BSA/1×TBS) was added to relevant wells, and plates were incubated for 1 hour at RT with gentle shaking. Plates were then washed four times with TBS/0.1% Tween (TBST). Goat anti-human IgG-HRP antibody (Thermo Fisher Scientific, Waltham, MA, USA), diluted 1:2000 in 5% milk/TBS, was added to each well and plates were incubated for 1 hour at RT with gentle shaking before being washed four times with TBST. 3,3′,5,5′-tetramethylbenzidine (TMB) ELISA solution was added to each well and plates were incubated for 15 mins at RT. An equal volume of 1 M sulfuric acid was added to each well and OD was measured at 450 nm.
In general terms: In an ELISA, binding on a coated surface is turned into a signal by an enzyme label.

For assay [6], the target named is T1, full length recombinant human 2N4R tau. Description: SPR SCK, IgG on Protein A, tau in flow. The source holds these as a separate data set.
The target of assay [7] is T2, Bovine serum albumin. Briefly: ELISA on 1% BSA, HEK supernatant, anti-human IgG-HRP, n=1. This is another data set of the same source.

T1 sequence (P10636 other isoform, or with tags, fused parts or gaps limits assumed): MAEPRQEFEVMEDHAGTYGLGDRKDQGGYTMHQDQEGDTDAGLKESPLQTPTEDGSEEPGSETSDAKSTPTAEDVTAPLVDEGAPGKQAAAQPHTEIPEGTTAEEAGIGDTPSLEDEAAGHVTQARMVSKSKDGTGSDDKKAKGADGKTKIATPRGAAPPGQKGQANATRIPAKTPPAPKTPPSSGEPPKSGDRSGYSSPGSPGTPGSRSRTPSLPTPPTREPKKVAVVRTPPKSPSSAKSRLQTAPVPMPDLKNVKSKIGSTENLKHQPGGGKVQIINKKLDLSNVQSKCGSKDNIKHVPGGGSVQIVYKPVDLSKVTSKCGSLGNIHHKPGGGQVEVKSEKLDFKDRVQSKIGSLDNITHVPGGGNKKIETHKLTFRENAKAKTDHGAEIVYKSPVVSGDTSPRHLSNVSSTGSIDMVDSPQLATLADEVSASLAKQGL
T2 sequence (P02769 25-607 limits assumed): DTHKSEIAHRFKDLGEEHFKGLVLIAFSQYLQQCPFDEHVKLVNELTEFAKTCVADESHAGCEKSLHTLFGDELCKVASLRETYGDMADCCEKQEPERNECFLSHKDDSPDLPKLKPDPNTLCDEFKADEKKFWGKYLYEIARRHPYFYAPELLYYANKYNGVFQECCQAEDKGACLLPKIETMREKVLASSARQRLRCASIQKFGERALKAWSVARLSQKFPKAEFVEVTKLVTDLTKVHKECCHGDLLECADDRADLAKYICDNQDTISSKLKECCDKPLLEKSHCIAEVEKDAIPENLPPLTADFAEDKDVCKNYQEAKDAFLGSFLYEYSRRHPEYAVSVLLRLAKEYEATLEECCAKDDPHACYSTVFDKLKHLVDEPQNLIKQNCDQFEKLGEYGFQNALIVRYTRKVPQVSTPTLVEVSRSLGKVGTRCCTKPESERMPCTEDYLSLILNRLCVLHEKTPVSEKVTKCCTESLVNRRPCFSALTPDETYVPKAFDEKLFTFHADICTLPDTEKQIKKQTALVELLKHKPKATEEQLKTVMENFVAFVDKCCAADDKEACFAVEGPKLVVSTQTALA
Sequence of aggregated (oligomeric) P301S 2N4R tau, pHrodo-labelled (P10636 other isoform, or with tags, fused parts or gaps P301S P301S): as the sequence (P10636 other isoform, or with tags, fused parts or gaps limits assumed) above, with P301S counted along it
Sequence of monomeric P301S 2N4R tau, pHrodo-labelled (P10636 other isoform, or with tags, fused parts or gaps P301S P301S): as the sequence (P10636 other isoform, or with tags, fused parts or gaps limits assumed) above, with P301S counted along it

B1: #44 VH4VK2 humanised hIgG1 (antibody, V domains shown)
VH: QVQLQESGPGLVKPSETLSLTCTVSGIDLSSYAMAWVRQAPGKGLEWIGCIDRRGGTFYASWVKGRFTISKDTSKTTVDLQMTSLTAEDTATYFCARDSGAFDPWGQGTLVTVSS
VL: QIVMTQSPSSLSASVGDRVTITCQASQSVYDNYLAWYQQKPGQPPKLLIHAASNLASGVPSRFKGSGSGTEFTLTISSLQPDDFATYYCLGEFSCTTTDCNVFGGGTKVEIK
notes: also called VH4Vκ2; Clone VH4VK2 (C)
For B1, in assay [1], the “increase of monomeric tau uptake into human iPSC-derived microglia” value worked out at 71.4%, the “inhibition of monomeric tau uptake into human iPSC-derived astrocytes” value was found to be 84.6% and the “inhibition of monomeric tau uptake into human iPSC-derived neurons” value amounted to 50%. For the same molecule, in assay [2], the “increase of aggregated tau uptake into human iPSC-derived microglia” value came to 97.6%, the “inhibition of aggregated tau uptake into human iPSC-derived astrocytes” value was found to be 48% and the “inhibition of aggregated tau uptake into human iPSC-derived neurons” value turned out to be 41.9%. In assay [3], the Kd was found to be 6.86 nM, the “Relative KD (to VH0VK0)” value turned out to be 1.79, the koff was 0.0247 s⁻¹ and the kon was found to be 3.6e+06 M⁻¹ s⁻¹. Also, in assay [4], the Kd was 4.39 nM, the “Relative KD (to VH0VK0)” value amounted to 1.35, the koff stood at 0.0401 s⁻¹ and the kon came to 9.14e+06 M⁻¹ s⁻¹. Also, the binding result with Bovine serum albumin [5] is given as “no binding (tested: supernatant 1:100)”.

B2: #44_VH4VK4_H10/pVL (antibody, V domains shown)
VH: QVQLQESGPGLVKPSETLSLTCTVSGIDLSSYAMAWVRQAPGKGLEWIGAIDARGRTFYASWVKGRFTISKDTSKTTVDLQMTSLTAEDTATYFCARDSGAFDPWGQGTLVTVSS
VL: DIQMTQSPSSLSASVGDRVTITCQASQSVYDNYLAWYQQKPGQPPKLLIHAASNLASGVPSRFSGSGSGTEFTLTISSLQPDDFATYYCLGEFSCTTTDCNVFGGGTKVEIK
notes: also called Clone VH4_H10; #44_VH4_H10
For the molecule B2, in assay [6], the “Fold change (KD, to pVH/pVL)” value was found to be 0.66 and the Kd was 9.95 nM. Besides, in the assay with Bovine serum albumin [7], the binding result was “no binding (tested: 30 ng/ml (legend 1:100))”.

B3: #44_VH4VK4_H05/pVL (antibody, V domains shown)
VH: QVQLQESGPGLVKPSETLSLTCTVSGIDLSSYAMAWVRQAPGKGLEWIGCIDRRGGTFYASWVKGRFTISKDTSKTTVDLQMTSLTAEDTATYFCARDAGHFDYWGQGTLVTVSS
VL: DIQMTQSPSSLSASVGDRVTITCQASQSVYDNYLAWYQQKPGQPPKLLIHAASNLASGVPSRFSGSGSGTEFTLTISSLQPDDFATYYCLGEFSCTTTDCNVFGGGTKVEIK
notes: also called Clone VH4_H05; #44_VH4_H05
On to B3, for which, in assay [6], the “Fold change (KD, to pVH/pVL)” value is 1.36; the Kd was determined as 4.84 nM; the koff was determined as 0.0203 s⁻¹; the kon came to 4.18e+06 M⁻¹ s⁻¹. Further, the binding result in the assay with Bovine serum albumin [7] is “no binding (tested: 30 ng/ml (legend 1:100))”.

B4: #44 VH4VK3 humanised hIgG1 (antibody, V domains shown)
VH: QVQLQESGPGLVKPSETLSLTCTVSGIDLSSYAMAWVRQAPGKGLEWIGCIDRRGGTFYASWVKGRFTISKDTSKTTVDLQMTSLTAEDTATYFCARDSGAFDPWGQGTLVTVSS
VL: DIQMTQSPSSLSASVGDRVTITCQASQSVYDNYLAWYQQKPGQPPKLLIHAASNLASGVPSRFKGSGSGTEFTLTISSLQPDDFATYYCLGEFSCTTTDCNVFGGGTKVEIK
notes: also called VH4Vκ3; Clone VH4VK3 (D)
Turning to B4, in assay [1], the “increase of monomeric tau uptake into human iPSC-derived microglia” value came out at 60.2%, the “inhibition of monomeric tau uptake into human iPSC-derived astrocytes” value was determined as 87.5% and the “inhibition of monomeric tau uptake into human iPSC-derived neurons” value turned out to be 41.8%. Also, in assay [2], the “increase of aggregated tau uptake into human iPSC-derived microglia” value was 90.5%, the “inhibition of aggregated tau uptake into human iPSC-derived astrocytes” value stood at 49.9% and the “inhibition of aggregated tau uptake into human iPSC-derived neurons” value came out at 36.3%. Further, in assay [3], the Kd worked out at 6.68 nM, the “Relative KD (to VH0VK0)” value was 1.74, the koff stood at 0.034 s⁻¹ and the kon turned out to be 5.09e+06 M⁻¹ s⁻¹. In addition, in assay [4], the Kd was determined as 5.14 nM, the “Relative KD (to VH0VK0)” value was determined as 1.58, the koff is 0.0403 s⁻¹ and the kon was 7.83e+06 M⁻¹ s⁻¹. For the same molecule, the binding result with Bovine serum albumin [5] was “no binding (tested: supernatant 1:100)”.

B5: #44_VH4VK4_H03/pVL (antibody, V domains shown)
VH: QVQLQESGPGLVKPSETLSLTCTVSGIDLSSYAMAWVRQAPGKGLEWIGCIDRRGGTFYASWVKGRFTISKDTSKTTVDLQMTSLTAEDTATYFCARDAGAFDVWGQGTLVTVSS
VL: DIQMTQSPSSLSASVGDRVTITCQASQSVYDNYLAWYQQKPGQPPKLLIHAASNLASGVPSRFSGSGSGTEFTLTISSLQPDDFATYYCLGEFSCTTTDCNVFGGGTKVEIK
notes: also called Clone VH4_H03; #44_VH4_H03
On to B5, for which, in assay [6], the “Fold change (KD, to pVH/pVL)” value was determined as 1.03; the Kd was 6.4 nM; the koff turned out to be 0.0151 s⁻¹; the kon was 2.36e+06 M⁻¹ s⁻¹. In addition, in the assay with Bovine serum albumin [7], the binding result is recorded as “no binding (tested: 30 ng/ml (legend 1:100))”.

B6: #44_VH4VK4_H09/pVL (antibody, V domains shown)
VH: QVQLQESGPGLVKPSETLSLTCTVSGIDLSSYAMAWVRQAPGKGLEWIGAIDARGNTFYASWVKGRFTISKDTSKTTVDLQMTSLTAEDTATYFCARDSGAFDPWGQGTLVTVSS
VL: DIQMTQSPSSLSASVGDRVTITCQASQSVYDNYLAWYQQKPGQPPKLLIHAASNLASGVPSRFSGSGSGTEFTLTISSLQPDDFATYYCLGEFSCTTTDCNVFGGGTKVEIK
notes: also called Clone VH4_H09; #44_VH4_H09
For B6, in assay [6], the “Fold change (KD, to pVH/pVL)” value was 0.67; the Kd amounted to 9.85 nM; the koff was 0.032 s⁻¹; the kon turned out to be 3.25e+06 M⁻¹ s⁻¹. Also, the binding result in the assay with Bovine serum albumin [7] is recorded as “no binding (tested: 30 ng/ml (legend 1:100))”.

B7: #44_VH4VK4_H08/pVL (antibody, V domains shown)
VH: QVQLQESGPGLVKPSETLSLTCTVSGIDLSSYAMAWVRQAPGKGLEWIGAIDAAGRTFYASWVKGRFTISKDTSKTTVDLQMTSLTAEDTATYFCARDSGAFDPWGQGTLVTVSS
VL: DIQMTQSPSSLSASVGDRVTITCQASQSVYDNYLAWYQQKPGQPPKLLIHAASNLASGVPSRFSGSGSGTEFTLTISSLQPDDFATYYCLGEFSCTTTDCNVFGGGTKVEIK
notes: also called Clone VH4_H08; #44_VH4_H08
In the case of B7, in assay [6], the “Fold change (KD, to pVH/pVL)” value came out at 0.26; the Kd amounted to 25.7 nM; the koff is 0.011 s⁻¹; the kon came out at 426000 M⁻¹ s⁻¹. The binding result with Bovine serum albumin [7] was “no binding (tested: 30 ng/ml (legend 1:100))”.

B8: #44_VH4VK4_H11/pVL (antibody, V domains shown)
VH: QVQLQESGPGLVKPSETLSLTCTVSGIDLSSYAMAWVRQAPGKGLEWIGAIDARGATFYASWVKGRFTISKDTSKTTVDLQMTSLTAEDTATYFCARDSGAFDPWGQGTLVTVSS
VL: DIQMTQSPSSLSASVGDRVTITCQASQSVYDNYLAWYQQKPGQPPKLLIHAASNLASGVPSRFSGSGSGTEFTLTISSLQPDDFATYYCLGEFSCTTTDCNVFGGGTKVEIK
notes: also called Clone VH4_H11; #44_VH4_H11
Regarding B8, in assay [6], the “Fold change (KD, to pVH/pVL)” value is 1.16 and the Kd worked out at 5.65 nM. Also, in the assay with Bovine serum albumin [7], the binding result is “no binding (tested: 30 ng/ml (legend 1:100))”.

B9: #44_VH4VK4_H07/pVL (antibody, V domains shown)
VH: QVQLQESGPGLVKPSETLSLTCTVSGIDLSSYAMAWVRQAPGKGLEWIGAIDAAGNTFYASWVKGRFTISKDTSKTTVDLQMTSLTAEDTATYFCARDSGAFDPWGQGTLVTVSS
VL: DIQMTQSPSSLSASVGDRVTITCQASQSVYDNYLAWYQQKPGQPPKLLIHAASNLASGVPSRFSGSGSGTEFTLTISSLQPDDFATYYCLGEFSCTTTDCNVFGGGTKVEIK
notes: also called Clone VH4_H07; #44_VH4_H07
As for B9, in assay [6], the “Fold change (KD, to pVH/pVL)” value is 0.9 and the dissociation constant Kd amounted to 7.35 nM. In addition, the binding result in the assay with Bovine serum albumin [7] is listed as “no binding (tested: 30 ng/ml (legend 1:100))”.
